B1: ESRRG (parent)
chain: YSCPATNECEITKRRRKSCQACRF
B2: RIPK4 (parent)
chain: AAWQGHLPIVKLLAKQPGVSVNAQ

Variants of: B1
Experiment: protein stability index of a GFP-peptide fusion (GPS, HEK-293T) (PSI 1-6); higher = more stable
Settings: c terminus: a fixed tail appended
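Also: lentivirally expressed fusions sorted by FACS into six bins by GFP to DsRed ratio, PSI derived from sequencing read proportions per bin multiplied by bin number.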

Protein stability index, by site and new letter:
S2: P 2.98 | Y 2.89 | A 2.1 | E 4.1 | M 3.27
K17: F 2.69 | G 3.51 | N 3.25 | W 2.83 | R 3.31 | P 2.9
F24: A 4 | C 3.62
R23: G 3.79
T12: G 3.41 | N 3.59 | M 2.97 | L 2.71
C19: W 3.15 | S 3.54 | A 3.83 | N 3.82
R15: Y 3.34 | D 4.01 | W 2.81
I11: M 3.14 | E 3.95
A21: E 3.43 | T 3.47 | R 3.49
R14: D 3.76 | N 3.63 | M 3.09 | F 3.19 | E 3.62
R16: D 3.75 | M 3.07 | I 3.31
C9: F 3.32 | D 3.4 | E 3.79 | I 3.48 | T 3.61 | H 3.68 | N 3.18
N7: T 3.61
C22: I 3.42 | E 3.49 | P 3.86 | D 4.07 | V 3.66
Q20: N 3.52 | P 3.39 | R 3.49 | T 2.93
P4: V 3.09 | H 2.91
K13: A 3.28 | F 2.67 | W 2.52
A5: Q 3.26 | E 3.73 | W 1.51 | K 3.36 | C 3.43 | T 2.78 | M 3
Y1: D 4.05 | T 4.35 | E 4.13 | F 3.36 | W 3.11 | L 4.09
T6: C 3.76 | V 3.1 | D 3.71 | F 2.47 | W 2.26
E10: F 2.53 | C 3.06 | L 3.06
S18: E 3.43 | L 3.19
E8: G 3.54 | L 3.02 | Q 3.52 | C 3.12 | S 2.97
C3: P 3.58 | H 2.7 | E 4.09 | M 3.55 | R 3.05 | V 4.16

Variants of: B2
Experiment: as above
Settings: c terminus: a fixed tail appended

Protein stability index of substitutions, site by site:
A14: H 2.13 | K 3.17 | M 2.07 | Y 2.09 | D 3.75 | T 2.42 | V 1.87 | I 1.67 | Q 2.14 | F 1.57 | W 1.33 | N 3.07 | G 2.72 | E 2.56 | S 2.72 | P 3.28 | R 2.5 | C 1.33
L13: A 2.9 | Q 4.64 | H 2.5 | P 3.55 | K 2.86 | W 3.24 | R 3.09 | F 2.39 | S 2.85 | T 2.16 | Y 2.94 | E 4.25 | N 3.81 | C 2.86 | I 2.82 | V 2.88 | D 3.82
Q16: R 2.26 | N 2.95 | D 3.25 | M 2.22 | S 2.56 | W 1.55 | G 2.93 | K 2.77 | A 2.54 | L 2 | T 2.5 | I 1.42 | V 2.14 | P 2.27 | H 2.97 | Y 1.97 | C 2 | E 3.78
A23: D 2.65 | E 2.92 | N 2.92 | I 1.72 | V 2.19 | L 2.01 | H 1.79 | S 2.52 | K 2.6 | C 2.89 | Q 3.54 | R 2.64 | F 1.41 | G 2.54 | Y 1.63 | T 2.4 | M 1.74 | P 2.03
Q24: M 1.86 | I 1.61 | G 1.93 | P 1.89 | T 1.93 | W 1.58 | A 2.08 | Y 1.5 | S 2.69 | C 2.19 | K 2.78 | D 3.29 | F 2.07 | E 3.17 | L 2.83 | H 1.93 | V 3.06 | N 2.39 | R 3.16
V21: Q 2.3 | T 2.18 | E 2.92 | N 2.99 | I 2.43 | F 2.23 | C 1.54 | S 2.81 | A 2.62 | G 1.6 | H 2.45 | Y 1.89 | M 1.95 | L 2.51 | R 2.75 | P 2.3 | K 2.8 | D 3.05
P17: M 2.5 | E 3.58 | W 2.91 | H 1.82 | D 2.15 | G 2.22 | N 2.54 | A 1.51 | K 2.45 | F 1.53 | S 2.46 | T 1.83 | Y 3.38 | Q 2.37 | C 1.92 | L 2.58
K15: F 2.26 | E 2.73 | S 2.16 | R 2.06 | T 2.88 | Q 1.81 | D 3.15 | A 2.56 | P 1.28 | C 1.67 | G 2.58 | L 1.82 | W 2.04 | I 2.82 | M 2.11 | N 3.56 | H 2.43
K11: V 1.84 | I 1.4 | H 2.15 | T 2.1 | N 2.4 | G 3 | M 2.13 | Q 2.35 | Y 1.94 | S 1.58 | P 3.07 | R 1.72
G18: F 1.51 | N 2.07 | I 2.01 | M 1.61 | Q 2.53 | R 1.69 | D 3.03 | W 1.36 | T 2.54 | K 2.46 | C 1.72 | S 2.54 | A 2.67 | H 2.55 | L 2.07 | Y 2.08 | V 1.92 | P 2.28
L12: S 3.75 | A 3.04 | N 3.59 | C 2.75 | P 2.71 | Y 3.14 | I 2.4 | Q 3.02 | T 3.25 | V 2.35 | G 3.67 | R 3.56 | H 3.33 | W 1.33 | D 4.08 | M 1.88 | F 2.45 | E 4.1
N22: L 2.06 | K 2.29 | C 1.89 | D 2.48 | Q 1.98 | R 1.98 | G 1.98 | F 1.55 | V 3.92 | P 2.19 | W 1.36 | S 3.35 | M 2.61 | T 2.58 | A 2.15 | Y 1.39 | H 2.37 | I 2.22
S20: L 1.76 | M 2.29 | I 2.33 | V 1.82 | G 2.63 | Y 1.66 | T 2.4 | A 2.3 | Q 2.35 | C 2.88 | D 2.55 | R 2.97 | E 2.79 | W 2.83 | F 1.64 | H 1.97 | K 1.96 | P 2.05
V19: R 3.3 | G 1.85 | N 2.61 | L 2.04 | S 3.22 | F 1.7 | T 2.46 | H 2.65 | P 3.08 | W 1.61 | C 2.66 | K 2.73 | Y 1.75 | M 2.3 | D 3.35
